Values belong to the binder of their own block, whether it stands above or below them.
Experiments:
[1] = molecular target: T1, recombinant B7-H4 protein (extracellular domain, IgC+IgV, fused to 6xHIS Tag) (human, UniProt Q7Z7D3 29-259, biotinylated in the capture ELISA (site not stated)); test: capture ELISA, immobilized scFv, biotinylated rB7-H4, SA-HRP
T1 construct: also called rB7-H4; rhB7-H4
T1 sequence: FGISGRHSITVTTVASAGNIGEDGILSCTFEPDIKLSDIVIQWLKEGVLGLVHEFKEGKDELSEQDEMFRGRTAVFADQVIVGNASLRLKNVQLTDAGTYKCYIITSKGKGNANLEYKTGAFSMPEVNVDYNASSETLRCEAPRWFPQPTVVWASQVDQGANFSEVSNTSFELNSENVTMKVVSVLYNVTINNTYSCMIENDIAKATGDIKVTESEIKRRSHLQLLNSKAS
Experimental: FIG. 6A is a schematic representation of protein-based (FIG. 6B) and cell-based isolation (FIG. 6C) strategies. Protein-based and cell-based isolated anti-B7-H4 scFvs were plastic-immobilized and incubated with serial dilutions of biotinylated recombinant B7-H4 (black diamonds) or irrelevant control antigen (BSA, grey triangles). Protein binding to scFv was detected with SA-HRP. Colorimetric signal was developed with TMB substrate solution, quenched with sulfuric acid and read at 450 nm on a Biotek ELISA reader.
The yeast-display scFv library derived from ovarian cancer patients was first screened by magnetic and flow sorting for anti-B7-H4 scFv using progressively decreasing concentrations of human biotinylated B7-H4 recombinant protein (rhB7-H4). Briefly, the library was enriched magnetically 3 times for scFv that bound to 1 ug/ml biotinylated rhB7-H4, and two times flow sorted with 1 ug/ml and 0.5 ug/ml biotinylated rhB7-H4. Selected yeast-display scFv were flow sorted for c-myc/B7-H4 double positive clones. […] Binding to serial dilutions of biotinylated rB7-H4 or control protein was detected using streptavidin-HRP. Colorimetric signals were developed with TMB substrate solution quenched with sulfuric acid and read at 450 nm on a […] Sequencing of scFv clones 26 and 56 was identified 2 unique clones that were then produced and Ni purified.

[2] = molecular target: T2, human B7-H4 expressed at the cell surface (human, UniProt Q7Z7D3 25-282); test: flow cytometry on macrophages
T2 construct: whole, on cells; Target wherever the assay used B7-H4-expressing cells (macrophages, TAMs, T2 B7-H4, B7-H4 MDA231, A1847, OVCAR5, EBV B cells); also called hB7-H4; B7x
T2 sequence (looked up): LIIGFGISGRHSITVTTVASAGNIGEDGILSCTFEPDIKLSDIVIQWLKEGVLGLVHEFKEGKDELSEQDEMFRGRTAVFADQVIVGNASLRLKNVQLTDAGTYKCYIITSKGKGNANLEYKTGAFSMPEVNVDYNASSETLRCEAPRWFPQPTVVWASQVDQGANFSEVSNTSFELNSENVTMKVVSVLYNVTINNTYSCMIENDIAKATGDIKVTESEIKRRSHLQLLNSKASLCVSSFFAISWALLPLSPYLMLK

[3] = molecular target: T2, human B7-H4 expressed at the cell …; test: cell-based or functional assay

binding result [1]: binds | binding result [2]: binds
B1: anti-B7H4 scFv clone 56 (scFv)
scFv: QPVLTQSHSVSESPGKTVTITCTGSGGNIATQYVQWYQQRPGSGPTTVIYDDDQRPSGVPDRFTGSIDSSSNSASLTISGLKTEDEADYYCQSYDSTNHGVFGGGAKVTVLGGSSRSSSSGGGGSGGGGQVQLQQWGPGLVKPSETLSLTCTVSGGSISSSSYYWGWIRQPPGKGLEWIGSIYYSGSTYYNPSLKSRVTISVDTSKNQFSLKLSSVTAADTAVYYCARLSKGYSSSWAYSYYGPDAWGQGTMVTVSSFEGSEQ
notes: Human scFv from a yeast-display library, made soluble from the yeast secretion vector p416-BCCP; Soluble scFv was detected through V5 and purified on Ni; also called scFv #56; 56 scFv

IFN-γ secretion of MART-1 TCR T cells in the presence of B7-H4+ TAMs [3]: 1.5 fold
B4: anti-B7H4 scFv clone 26 (scFv)
scFv: DIVMTQTPATLSVSPGKRATLSCRASQSVSSNYLAWYQQKPGQAPRLLIYGASRRATGIPDRFSGSGSGTDFTLTISSLQAEDVAVYYCQQYGSSPRTFGQGTKLEIKGGSSRSSSSGGGGSGGGGQVTLKESGAEVKNPGSSVKVSCKASGGTFSSYAISWLRQAPGQGLEWMGWINPNSGGSDYAQRFQGRVTMTRDTSINTVYMELSRLRSDDTAVYYCARVEKRGYYYGMDVWGQGTMVTVSSFEGSEQ

Continued, binder first:

B2: anti-B7H4 scFv clone 3#54 (scFv)
scFv: RPVLTQPPSAAGTPGQRVTISCSGSSSNIGSNYVYWYQQLPGMAPKLLIYTNNQRPSGVPGRFSGSKSGTSASLAISGLRSEDEADYYCAAWDDSLNGWVFGGGTELTVLGGSSRSSSSGGGGSGGGGQVQLQESGPGLVKPSETLSLTCNVSGRSVSSGFYWSWIRQRPGKGLEWVGSIYRSGLTYYNPSLKSRVTISVDTSKNQFSLKLSSVTAADTAVYYCARATPWYYYGMDVWGQGTTVTVSSFEGSEQ
IFN-γ production of MART-1 TCR T cells in the presence of B7-H4+ TAMs [3]: > 2 fold

B3: anti-B7H4 scFv clone 3#68 (scFv)
scFv: QPGLTQPPSASGTPGQRVTISCSGSSSNIGSNYVYWYQQFPGTAPKLLIYRNNQRPSGVPDRFSGSKSGTSASLAISGLRSEDEADYYCAAWDDSLSVWVFGGGTKVTVLGGSSRSSSSGGSGSGGGGQVTLKESGAEVKNPGSSVKVSCKASGGTFSSYAISWLRQAPGQGLEWMGWINPNSGGSDYAQRFQGRVTMTRDTSINTVYMELSRLRSDDTAVYYCARVEKRGYYYGMDVWGQGTMVTVSSFEGSEQ
IFN-γ production of MART-1 TCR T cells in the presence of B7-H4+ TAMs [3]: > 2 fold

Reference: patent publication US20140294861A1 (University of Pennsylvania, published 2014)
